Laboratory results as given in patent US20190010243A1.

Key:
CD32A^H = CD32A^H (UniProt P12318); assay: SPR (BIACORE); koff compared with wild-type Fc
[1] = molecular target: soluble human FcγRIIB (human) (UniProt P31994); assay: SPR (BIACORE); koff compared with wild-type Fc
[2] = molecular target: soluble human FcγRIIIA V158 (human) (UniProt P08637); assay: SPR (BIACORE); koff compared with wild-type Fc
[3] = molecular target: soluble human FcγRIIIA F158 (human) (UniProt P08637); assay: SPR (BIACORE); koff compared with wild-type Fc
[4] = molecular target: soluble human FcRn (human) (UniProt P55899); assay: SPR (Biacore 3000); ch4420 captured on protein-FITC surface; 500 nM hFcRn injected; pH 6.0
Sequence of UniProt P55899 (P55899 24-297 limits assumed, chain 1 of 2): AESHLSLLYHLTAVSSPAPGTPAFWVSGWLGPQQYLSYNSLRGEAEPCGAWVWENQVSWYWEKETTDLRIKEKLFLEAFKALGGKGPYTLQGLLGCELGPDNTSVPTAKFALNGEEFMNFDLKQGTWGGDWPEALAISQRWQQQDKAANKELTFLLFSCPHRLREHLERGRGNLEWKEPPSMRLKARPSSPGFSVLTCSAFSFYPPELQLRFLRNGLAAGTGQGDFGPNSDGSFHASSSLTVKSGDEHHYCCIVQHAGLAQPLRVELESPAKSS
Sequence of UniProt P55899 (P61769 21-119 limits assumed, chain 2 of 2, further chain): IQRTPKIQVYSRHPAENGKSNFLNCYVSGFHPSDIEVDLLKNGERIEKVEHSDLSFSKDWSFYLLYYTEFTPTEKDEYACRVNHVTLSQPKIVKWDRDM

Sequence of UniProt P12318 (P12318 34-217 limits assumed): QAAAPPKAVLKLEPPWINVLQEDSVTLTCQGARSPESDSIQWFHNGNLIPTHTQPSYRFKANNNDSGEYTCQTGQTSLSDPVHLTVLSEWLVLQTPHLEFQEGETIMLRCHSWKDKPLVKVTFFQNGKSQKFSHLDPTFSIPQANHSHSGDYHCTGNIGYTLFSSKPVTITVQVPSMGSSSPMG
Sequence of UniProt P31994 (P31994 43-217 limits assumed): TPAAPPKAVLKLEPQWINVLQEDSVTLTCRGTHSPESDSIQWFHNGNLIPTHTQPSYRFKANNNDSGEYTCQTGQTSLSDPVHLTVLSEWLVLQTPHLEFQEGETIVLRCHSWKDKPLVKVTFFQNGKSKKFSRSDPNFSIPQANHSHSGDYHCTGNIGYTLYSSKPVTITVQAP

Substance | ratio WT koff/mutant koff (CD32A^H) | ratio WT koff/mutant koff [1] | ratio WT koff/mutant koff [2] | ratio WT koff/mutant koff [3] | fold increase of binding response over wild type [4]
Fc mutant 1 (F243L) | 0.6 fold | 0.8 fold | 4.8 fold |  | 
Fc mutant 2 (D270E) | 2.2 fold | 0.4 fold | 1.3 fold |  | 
Fc mutant 3 (R292P) | 0.7 fold | 0.3 fold | 2.4 fold | 1.6 fold | 
Fc mutant 4 (S298N) |  | 0.2 fold |  |  | 
Fc mutant 5 (Y300L) | 2.9 fold | 1.2 fold |  | 1.2 fold | 
Fc mutant 6 (V305I) | 1.3 fold | 1.2 fold | 0.9 fold | 0.6 fold | 
Fc mutant 7 (A330V) | 0.4 fold | 0.3 fold | 0.6 fold | 1.2 fold | 
Fc mutant 8 (P396L) | 1.6 fold | 2.6 fold | 1.3 fold |  | 
Fc mutant 9 (F243L P396L) | 1.5 fold | 1.6 fold |  |  | 
Fc mutant 10 (F243L R292P) | 0.5 fold | 0.2 fold | 4 fold |  | 
Fc mutant 11 (R292P V305I) | 0.8 fold | 0.4 fold |  |  | 
Fc mutant 12 (F243L R292P Y300L) | 1 fold | 0.6 fold | 7.4 fold | 4.6 fold | 
Fc mutant 13 (F243L R292P V305I) | 0.2 fold | 0.1 fold | 2.6 fold | 1.4 fold | 
Fc mutant 14 (F243L R292P P396L) | 1.4 fold | 0.4 fold | 6.3 fold |  | 
Fc mutant 15 (R292P V305I P396L) | 1.5 fold | 0.9 fold | 1.9 fold | 1.9 fold | 
Fc mutant 16 (F243L R292P Y300L P396L) | 1.7 fold | 1.1 fold | 10.1 fold | 5.6 fold | 
Fc mutant 17 (F243L R292P V305I P396L) | 0.8 fold | 0.4 fold | 4 fold | 2.3 fold | 
Fc mutant 18 (F243L R292P Y300L V305I P396L) | 3.2 fold | 1.4 fold | 10.1 fold | 8.3 fold | 
ch4420 variant H435K (antibody) |  |  |  |  | < 4 fold
